We go through 56 substances from the supplement of paper PMC12042874.

± gives the uncertainty stated by the source.

A short description of this series: amyloid nucleation score (Sup35N fusion, yeast selection) (log enrichment); library NNK1; higher = more nucleation; inactive = no reads after selection. The method, boiled down: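 Nucleation score is defined as the DiMSum log enrichment of output over input reads, with centring on the mode score of non-aggregating sequences. A minimum of 100 input reads was required for each sequence. Reads came from Illumina sequencing of plasmid inserts from psi-negative yeast expressing Sup35N fused to peptides of 20 random codons, induced with 100 μM copper sulfate for 24 hours and grown 7 days at 30°C on medium lacking adenine and uracil.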
For the substance RVCQKCCPVVYAMNQWIFDW, the amyloid nucleation score came out at 7.536 ± 0.051.

As for RVFLMCCVGEMLRMLQLSSD, the amyloid nucleation score stood at 6.46 ± 0.073.

RVFSSFGFMKRRPVWTVWIT registered an amyloid nucleation score of -0.324 ± 0.81.

In turn, RVGYIYHYYLDNQG returned an amyloid nucleation score of -0.175 ± 0.38.

In the case of RVIWEGNAVQTSAWGSADPK, the amyloid nucleation score was -0.264 ± 0.64.

Take RVMLKSDRFYYVLKTCAY: the amyloid nucleation score came to 1 ± 0.37.

As for RVQCNNMKVCGITIFLMRS, the amyloid nucleation score came out at 6.516 ± 0.049.

In turn, RVQKNLINDFSESYPLCHWY gave an amyloid nucleation score of -0.553 ± 0.42.

In turn, RVSLSCIMKIYNFDKRVWLG yielded an amyloid nucleation score of 0.521 ± 0.97.

In turn, RVSSHGLILHFDKDNSMIAV returned an amyloid nucleation score of 0.936 ± 0.61.

With RVTPISCKYVLLTPMRLKNR, the amyloid nucleation score amounted to 2.35 ± 0.3.

RVYRYLPYRYERCLDL returned an amyloid nucleation score of -0.504 ± 0.93.

RWCMCVENRGMLVWGWNGFV: the amyloid nucleation score was -0.245 ± 0.53.

RWGATRFVVTS came in with an amyloid nucleation score of 0.304 ± 1.2.

Substance RWGMFTWVYFMLYALWIMTL displayed an amyloid nucleation score of 0.042 ± 0.44.

For RWLETVGECCCESARVFCA, the amyloid nucleation score was -0.45 ± 0.59.

Take RWSQNMGSKSVRGTKFNLKL: the amyloid nucleation score was found to be 0.846 ± 0.21.

Substance RWVTLCRWVNVSSDGELGVR registered an amyloid nucleation score of 0.993 ± 0.35.

In the case of RYCQVP, the amyloid nucleation score was determined as 0.348 ± 0.43.

In turn, RYEGKVKHYFKFKIKPMQV had an amyloid nucleation score of 0.809 ± 0.41.

As for RYFSWFYVN, the amyloid nucleation score is -0.089 ± 0.93.

Turning to RYFVYLSVFDYFINHLDIRW, the amyloid nucleation score was -0.79 ± 0.42.

With RYGPAVLKSSGAAAVGHS, the amyloid nucleation score is -0.59 ± 0.59.

Substance RYISTLYEMNLKYVNVVQFH had an amyloid nucleation score of 6.416 ± 0.045.

For the substance RYLSHHP, the amyloid nucleation score came out at 0.609 ± 0.55.

Substance RYLVALFSMYKWYGVEKDWK displayed an amyloid nucleation score of 0.954 ± 0.54.

RYMLFVFHSLTGYYIRRFVY had an amyloid nucleation score of -1.22 ± 1.

The substance RYRCSKVRRAMSKLTYVGMA came in with an amyloid nucleation score of 4.18 ± 0.07.

For the substance RYRDYSRRIDCLCYVSVPVY, the amyloid nucleation score amounted to 0.564 ± 0.4.

Consider RYSQTKDLKVLLQHFFIYKF, for which the amyloid nucleation score is -1.23 ± 1.7.

The substance RYSSLRWTISFDNLVVSFRP had an amyloid nucleation score of 0.724 ± 0.68.

Regarding RYSWSYEKKWIDNLQLVLR, the amyloid nucleation score was -0.609 ± 0.22.

Regarding RYTLILH, the amyloid nucleation score was -0.355 ± 0.75.

Take SAAYQALLTNSYFSLFDVSW: the amyloid nucleation score was 0.823 ± 0.21.

For SACFMMGLDDWCDSR, the amyloid nucleation score is -0.529 ± 0.35.

Turning to SACNYVRRNVAHVRLLSL, the amyloid nucleation score was determined as 0.564 ± 0.53.

The substance SAGVTPLEMKSDRIREDAAG returned an amyloid nucleation score of 0.629 ± 1.

For the substance SARRTPCTVIL, the amyloid nucleation score was 0.362 ± 1.4.

In turn, SAVLFIEFCVLIVVMFSIMM registered an amyloid nucleation score of -0.241 ± 1.2.

In the case of SAYPCCLSEDYVSSSGVSNK, the amyloid nucleation score is 0.74 ± 0.48.

In turn, SAYSKILSLPVRMGVWVAHI returned an amyloid nucleation score of 0.658 ± 0.42.

For SCDVTILGYLAMMKLDVMWV, the amyloid nucleation score was -0.074 ± 0.34.

As for SCGLINWLRVYHLLSLNSGS, the amyloid nucleation score was 2.31 ± 0.1.

On to SCHVTFKVFFLFAGPCREVL, for which the amyloid nucleation score was determined as 1.98 ± 0.27.

As for SCKRSA, the amyloid nucleation score was determined as 0.578 ± 0.4.

In turn, SCKVVILLPSVVKACLTVLP displayed an amyloid nucleation score of 0.474 ± 0.95.

Turning to SCMMYQMCNWHERAPSTVLL, the amyloid nucleation score was found to be 0.908 ± 0.58.

Substance SCNCHWY gave an amyloid nucleation score of 1.49 ± 0.74.

SCNHKNSRSHLALQS showed an amyloid nucleation score of 1.6 ± 0.44.

SCPRVTIFCCSGILGREWGK yielded an amyloid nucleation score of 7.189 ± 0.045.

Take SCRRYSYKCSVL: the amyloid nucleation score is -0.16 ± 1.4.

For SCSVSNGVFCNHGRGCGFRL, the amyloid nucleation score is 2.12 ± 0.18.

Regarding SCSVYTGYSYGLRYNFDLVS, the amyloid nucleation score was -1.81 ± 2.4.

SCTGCLFDTELRWISWVGLF came in with an amyloid nucleation score of 0.074 ± 0.39.

SDCRKAFIMSHRSDGNLEFV had an amyloid nucleation score of 0.382 ± 1.4.

Regarding SDDHVTVYNRDARRSRSCCL, the amyloid nucleation score result is “inactive”.
